These results are taken from publication PMC12169213 (Science (New York, N.Y.), 2025).

The target in one experiment is BRCA1-BARD1 (UniProt P38398 1-1863; Q99728 1-777). Kind of experiment: pull-down.
The next experiment addresses mCherry-BLM (UniProt P54132 1-1417). Kind of experiment: DNA curtain single-molecule imaging.

Chain of mCherry-BLM (P54132 whole entry): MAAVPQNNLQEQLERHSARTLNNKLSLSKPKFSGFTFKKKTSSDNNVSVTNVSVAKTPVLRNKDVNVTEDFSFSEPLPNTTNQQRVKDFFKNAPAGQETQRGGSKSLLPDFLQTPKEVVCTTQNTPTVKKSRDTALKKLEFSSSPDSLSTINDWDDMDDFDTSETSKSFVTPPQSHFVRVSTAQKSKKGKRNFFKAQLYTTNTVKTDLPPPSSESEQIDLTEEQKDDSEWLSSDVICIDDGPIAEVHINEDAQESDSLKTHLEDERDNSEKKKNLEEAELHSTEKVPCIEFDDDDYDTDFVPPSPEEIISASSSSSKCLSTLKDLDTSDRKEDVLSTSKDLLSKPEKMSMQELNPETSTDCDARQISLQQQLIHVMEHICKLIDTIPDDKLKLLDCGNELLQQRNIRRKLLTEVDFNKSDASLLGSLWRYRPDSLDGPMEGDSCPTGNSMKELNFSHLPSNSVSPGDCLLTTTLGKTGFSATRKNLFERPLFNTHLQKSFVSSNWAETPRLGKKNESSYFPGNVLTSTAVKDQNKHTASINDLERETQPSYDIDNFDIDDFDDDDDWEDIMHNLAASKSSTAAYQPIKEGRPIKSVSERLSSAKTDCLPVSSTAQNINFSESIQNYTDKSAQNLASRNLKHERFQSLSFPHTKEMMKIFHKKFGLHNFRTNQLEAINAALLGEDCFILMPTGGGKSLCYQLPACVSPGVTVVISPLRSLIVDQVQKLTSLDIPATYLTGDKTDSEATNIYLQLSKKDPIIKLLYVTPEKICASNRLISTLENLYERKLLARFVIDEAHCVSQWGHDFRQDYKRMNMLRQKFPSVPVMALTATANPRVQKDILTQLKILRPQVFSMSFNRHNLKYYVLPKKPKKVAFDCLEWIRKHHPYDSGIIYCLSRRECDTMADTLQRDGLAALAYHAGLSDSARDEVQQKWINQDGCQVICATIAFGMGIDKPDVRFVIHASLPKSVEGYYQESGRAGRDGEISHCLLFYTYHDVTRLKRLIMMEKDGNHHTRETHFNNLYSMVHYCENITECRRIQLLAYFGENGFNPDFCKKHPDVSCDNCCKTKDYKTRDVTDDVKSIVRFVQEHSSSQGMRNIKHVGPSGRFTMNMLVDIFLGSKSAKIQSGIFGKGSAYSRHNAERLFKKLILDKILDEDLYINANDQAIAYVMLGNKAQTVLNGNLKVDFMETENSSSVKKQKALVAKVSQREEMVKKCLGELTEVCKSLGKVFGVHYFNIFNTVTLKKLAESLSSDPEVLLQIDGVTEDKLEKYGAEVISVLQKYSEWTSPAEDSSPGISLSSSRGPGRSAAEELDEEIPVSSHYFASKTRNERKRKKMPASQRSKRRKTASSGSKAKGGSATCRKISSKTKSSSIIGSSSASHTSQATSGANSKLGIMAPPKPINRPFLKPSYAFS
Chain of BRCA1-BARD1 (P38398 whole entry, chain 1 of 2): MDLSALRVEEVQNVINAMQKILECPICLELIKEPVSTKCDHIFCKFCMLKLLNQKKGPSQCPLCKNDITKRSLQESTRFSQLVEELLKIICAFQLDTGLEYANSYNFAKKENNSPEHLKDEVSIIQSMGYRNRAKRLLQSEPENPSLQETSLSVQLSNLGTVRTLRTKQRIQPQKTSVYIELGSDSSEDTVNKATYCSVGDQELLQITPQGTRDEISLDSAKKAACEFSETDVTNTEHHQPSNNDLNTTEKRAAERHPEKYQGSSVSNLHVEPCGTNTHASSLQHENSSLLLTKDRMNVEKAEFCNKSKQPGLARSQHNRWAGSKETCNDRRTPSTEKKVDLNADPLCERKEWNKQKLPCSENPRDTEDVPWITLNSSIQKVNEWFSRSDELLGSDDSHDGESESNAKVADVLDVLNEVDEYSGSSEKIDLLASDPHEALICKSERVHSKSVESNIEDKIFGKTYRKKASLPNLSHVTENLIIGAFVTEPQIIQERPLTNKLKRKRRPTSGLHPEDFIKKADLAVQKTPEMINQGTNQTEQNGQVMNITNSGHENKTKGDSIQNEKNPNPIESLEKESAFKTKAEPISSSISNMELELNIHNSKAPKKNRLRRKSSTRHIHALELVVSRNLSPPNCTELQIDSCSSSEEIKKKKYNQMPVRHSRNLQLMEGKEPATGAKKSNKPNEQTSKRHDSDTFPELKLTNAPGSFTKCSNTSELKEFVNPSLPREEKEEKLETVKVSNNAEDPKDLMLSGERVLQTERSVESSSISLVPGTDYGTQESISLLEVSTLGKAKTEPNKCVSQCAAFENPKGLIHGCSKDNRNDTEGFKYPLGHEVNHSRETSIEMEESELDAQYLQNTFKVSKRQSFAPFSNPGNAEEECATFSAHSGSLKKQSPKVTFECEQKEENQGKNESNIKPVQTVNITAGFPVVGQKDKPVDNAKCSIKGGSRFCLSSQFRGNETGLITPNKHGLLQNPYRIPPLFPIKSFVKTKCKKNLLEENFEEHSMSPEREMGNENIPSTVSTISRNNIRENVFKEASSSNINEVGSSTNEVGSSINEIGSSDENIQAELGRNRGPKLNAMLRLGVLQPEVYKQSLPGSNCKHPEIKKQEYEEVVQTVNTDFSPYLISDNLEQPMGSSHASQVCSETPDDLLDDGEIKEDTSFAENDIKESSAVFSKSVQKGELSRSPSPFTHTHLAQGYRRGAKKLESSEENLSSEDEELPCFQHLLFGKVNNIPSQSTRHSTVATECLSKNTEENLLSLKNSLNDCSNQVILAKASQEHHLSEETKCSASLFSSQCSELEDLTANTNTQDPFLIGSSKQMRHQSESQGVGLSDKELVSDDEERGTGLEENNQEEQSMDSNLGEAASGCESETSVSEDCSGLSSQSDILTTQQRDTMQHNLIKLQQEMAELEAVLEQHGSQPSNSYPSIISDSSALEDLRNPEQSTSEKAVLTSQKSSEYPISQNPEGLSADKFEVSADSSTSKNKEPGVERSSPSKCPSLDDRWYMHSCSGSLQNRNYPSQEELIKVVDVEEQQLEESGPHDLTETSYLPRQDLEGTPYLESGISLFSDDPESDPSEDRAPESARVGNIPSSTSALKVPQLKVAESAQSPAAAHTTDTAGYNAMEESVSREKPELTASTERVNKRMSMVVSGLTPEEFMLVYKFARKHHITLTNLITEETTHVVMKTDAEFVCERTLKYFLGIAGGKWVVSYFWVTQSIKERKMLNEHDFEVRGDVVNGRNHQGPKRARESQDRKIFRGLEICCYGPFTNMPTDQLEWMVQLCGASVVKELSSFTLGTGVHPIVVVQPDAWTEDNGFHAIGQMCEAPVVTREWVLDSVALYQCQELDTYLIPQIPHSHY
Chain of BRCA1-BARD1 (Q99728 whole entry, chain 2 of 2): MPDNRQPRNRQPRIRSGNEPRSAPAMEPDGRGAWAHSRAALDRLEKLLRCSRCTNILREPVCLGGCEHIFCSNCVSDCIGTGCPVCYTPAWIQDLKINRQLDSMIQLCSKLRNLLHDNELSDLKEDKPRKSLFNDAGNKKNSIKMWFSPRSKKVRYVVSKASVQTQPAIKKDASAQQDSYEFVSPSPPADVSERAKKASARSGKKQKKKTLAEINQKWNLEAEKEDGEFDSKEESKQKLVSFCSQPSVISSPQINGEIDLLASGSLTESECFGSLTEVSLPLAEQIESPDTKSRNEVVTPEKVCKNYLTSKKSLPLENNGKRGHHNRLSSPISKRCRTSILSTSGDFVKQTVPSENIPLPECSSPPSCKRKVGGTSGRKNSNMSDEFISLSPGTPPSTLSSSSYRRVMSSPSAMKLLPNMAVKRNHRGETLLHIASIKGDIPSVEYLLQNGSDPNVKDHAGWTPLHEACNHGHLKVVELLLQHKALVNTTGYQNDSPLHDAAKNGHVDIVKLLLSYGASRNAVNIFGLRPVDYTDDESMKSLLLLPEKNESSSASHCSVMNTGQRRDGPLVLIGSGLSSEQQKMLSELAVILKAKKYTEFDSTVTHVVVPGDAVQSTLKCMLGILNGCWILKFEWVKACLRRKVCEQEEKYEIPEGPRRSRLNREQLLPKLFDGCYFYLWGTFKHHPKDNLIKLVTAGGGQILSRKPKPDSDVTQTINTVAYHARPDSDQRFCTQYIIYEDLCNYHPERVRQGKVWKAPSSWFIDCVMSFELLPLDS

B1: CTC1-STN1-TEN1 (CST) complex (complex)
chain 1: AAGRAQVPSSEQAWLEDAQVFIQKTLCPAVKEPNVQLTPLVIDCVKTVWLSQGRNQGSTLPLSYSFVSVQDLKTHQRLPCCSHLSWSSSAYQAWAQEAGPNGNPLPREQLLLLGTLTDLSADLEQECRNGSLYVRDNTGVLSCELIDLDLSWLGHLFLFPRWSYLPPARWNSSGEGHLELWDAPVPVFPLTISPGPVTPIPVLYPESASCLLRLRNKLRGVQRNLAGSLVRLSALVKSKQKAYFILSLGRSHPAVTHVSIIVQVPAQLVWHRALRPGTAYVLTELRVSKIRGQRQHVWMTSQSSRLLLLKPECVQELELELEGPLLEADPKPLPMPSNSEDKKDPESLVRYSRLLSYSGAVTGVLNEPAGLYELDGQLGLCLAYQQFRGLRRVMRPGVCLQLQDVHLLQSVGGGTRRPVLAPCLRGAVLLQSFSRQKPGAHSSRQAYGASLYEQLVWERQLGLPLYLWATKALEELACKLCPHVLRHHQFLQHSSPGSPSLGLQLLAPTLDLLAPPGSPVRNAHNEILEEPHHCPLQKYTRLQTPSSFPTLATLKEEGQRKAWASFDPKALLPLPEASYLPSCQLNRRLAWSWLCLLPSAFCPAQVLLGVLVASSHKGCLQLRDQSGSLPCLLLAKHSQPLSDPRLIGCLVRAERFQLIVERDVRSSFPSWKELSMPGFIQKQQARVYVQFFLADALILPVPRPCLHSATPSTPQTDPTGPEGPHLGQSRLFLLCHKEALMKRNFCVPPGASPEVPKPALSFYVLGSWLGGTQRKEGTGWGLPEPQGNDDNDQKVHLIFFGSSVRWFEFLHPGQVYRLIAPGPATPMLFEKDGSSCISRRPLELAGCASCLTVQDNWTLELESSQDIQDVLDANKSLPESSLTDLLSDNFTDSLVSFSAEILSRTLCEPLVASLWMKLGNTGAMRRCVKLTVALETAECEFPPHLDVYIEDPHLPPSLGLLPGARVHFSQLEKRVSRSHNVYCCFRSSTYVQVLSFPPETTISIPLPHIYLAELLQGGQSPFQATASCHIVSVFSLQLFWVCAYCTSICRQGKCTRLGSTCPTQTAISQAIIRLLVEDGTAEAVVTCRNHHVAAALGLCPREWASLLDFVQVPGRVVLQFAGPGAQLESSARVDEPMTMFLWTLCTSPSVLRPIVLSFELERKPSKIVPLEPPRLQRFQCGELPFLTHVNPRLRLSCLSIRESEYSSSLGILASSC
chain 2: QPGSSRCEEETPSLLWGLDPVFLAFAKLYIRDILDMKESRQVPGVFLYNGHPIKQVDVLGTVIGVRERDAFYSYGVDDSTGVINCICWKKLNTESVSAAPSAARELSLTSQLKKLQETIEQKTKIEIGDTIRVRGSIRTYREEREIHATTYYKVDDPVWNIQIARMLELPTIYRKVYDQPFHSSALEKEEALSNPGALDLPSLTSLLSEKAKEFLMENRVQSFYQQELEMVESLLSLANQPVIHSASSDQVNFKKDTTSKAIHSIFKNAIQLLQEKGLVFQKDDGFDNLYYVTREDKDLHRKIHRIIQQDCQKPNHMEKGCHFLHILACARLSIRPGLSEAVLQQVLELLEDQSDIVSTMEHYYTAF
chain 3: LPKPGTYYLPWEVSAGQVPDGSTLRTFGRLCLYDMIQSRVTLMAQHGSDQHQVLVCTKLVEPFHAQVGSLYIVLGELQHQQDRGSVVKARVLTCVEGMNLPLLEQAIREQRLYKQERGGSQ
On to B1, for which the binding result with BRCA1-BARD1 is given as “binds”.

B2: green fluorescent protein (GFP)-DNA2 (enzyme, UniProt P51530 1-1060, looked up)
chain: MEQLNELELLMEKSFWEEAELPAELFQKKVVASFPRTVLSTGMDNRYLVLAVNTVQNKEGNCEKRLVITASQSLENKELCILRNDWCSVPVEPGDIIHLEGDCTSDTWIIDKDFGYLILYPDMLISGTSIASSIRCMRRAVLSETFRSSDPATRQMLIGTVLHEVFQKAINNSFAPEKLQELAFQTIQEIRHLKEMYRLNLSQDEIKQEVEDYLPSFCKWAGDFMHKNTSTDFPQMQLSLPSDNSKDNSTCNIEVVKPMDIEESIWSPRFGLKGKIDVTVGVKIHRGYKTKYKIMPLELKTGKESNSIEHRSQVVLYTLLSQERRADPEAGLLLYLKTGQMYPVPANHLDKRELLKLRNQMAFSLFHRISKSATRQKTQLASLPQIIEEEKTCKYCSQIGNCALYSRAVEQQMDCSSVPIVMLPKIEEETQHLKQTHLEYFSLWCLMLTLESQSKDNKKNHQNIWLMPASEMEKSGSCIGNLIRMEHVKIVCDGQYLHNFQCKHGAIPVTNLMAGDRVIVSGEERSLFALSRGYVKEINMTTVTCLLDRNLSVLPESTLFRLDQEEKNCDIDTPLGNLSKLMENTFVSKKLRDLIIDFREPQFISYLSSVLPHDAKDTVACILKGLNKPQRQAMKKVLLSKDYTLIVGMPGTGKTTTICTLVRILYACGFSVLLTSYTHSAVDNILLKLAKFKIGFLRLGQIQKVHPAIQQFTEQEICRSKSIKSLALLEELYNSQLIVATTCMGINHPIFSRKIFDFCIVDEASQISQPICLGPLFFSRRFVLVGDHQQLPPLVLNREARALGMSESLFKRLEQNKSAVVQLTVQYRMNSKIMSLSNKLTYEGKLECGSDKVANAVINLRHFKDVKLELEFYADYSDNPWLMGVFEPNNPVCFLNTDKVPAPEQVEKGGVSNVTEAKLIVFLTSIFVKAGCSPSDIGIIAPYRQQLKIINDLLARSIGMVEVNTVDKYQGRDKSIVLVSFVRSNKDGTVGELLKDWRRLNVAITRAKHKLILLGCVPSLNCYPPLEKLLNHLNSEKLIIDLPSREHESLCHILGDFQRE
Turning to B2, the binding result in the experiment with mCherry-BLM was “binds”.
